Results from patent US20230192897A1 (NUMAB THERAPEUTICS, published 2023).
Values joined by “and” are separate entries in the source; they are usually repeats but may differ in a detail not shown here. Identical values can stand only once. Like-named read-outs stand apart in the source and are kept apart here.

What was measured:
Fc tagged human PDL1 = molecular target: T1, Fc tagged human PDL1 (human, UniProt Q9NZQ7 19-239); assay: SPR
T1 construct: Bought (Sino Biological, cat. 10084-H02H); captured on the SPR chip; also called PDL1-Fc chimeric protein
Procedure, shortened: (§1)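 Kinetics were fitted with a one-to-one Langmuir model to give apparent ka, kd and KD. Binders at 0.12-90 nM (three-fold series) flowed 3 min, with 10 min dissociation and 3 M MgCl₂ regeneration, on a Biacore T200.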

Fc tagged human CD137 = molecular target: T2, Fc tagged human CD137 (human, UniProt Q07011 24-186); assay: SPR
T2 construct: also called CD137-Fc chimeric protein
Procedure, shortened: as §1

human PDL1 on cells = human PDL1 on cells (human, UniProt Q9NZQ7 19-290); assay: cell-based or functional assay
[1] = molecular target: T3, CD137 on Jurkat NFkB reporter cells (human, UniProt Q07011 24-255); assay: cell-based or functional assay
biotinylated human PDL1 [2] = molecular target: T4, biotinylated human PDL1 (human, UniProt Q9NZQ7 19-238, limits assumed, biotinylated); assay: competition ELISA B7.1/PDL1
T4 construct: also called biotinylated PDL1
Procedure, shortened: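 IC₅₀ was derived by four-parameter logistic fitting of reference-subtracted A450/690 readings. The signal came from streptavidin-polyHRP40 (10 ng/ml) with a 6-minute TMB reaction detecting biotinylated PDL1 bound to the plate. Pre-mixed samples sat 1 h at RT before a 1.5 h plate incubation.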

biotinylated human PDL1 [3] = molecular target: T4, biotinylated human PDL1; assay: competition ELISA PD-1/PDL1
human serum albumin = molecular target: T5, human serum albumin (human, UniProt P02768 25-609); assay: SPR, SA coupled to chip, pH 5.5
T5 construct: Coupled directly to the CM5 chip; also called HSA; human SA
Method: (§2) Affinity of molecules to serum albumin (SA) of the different species was determined by SPR measurements using a Biacore T200 device (GE Healthcare). SA was directly coupled to a CM5 sensor chip (GE Healthcare) using amine coupling chemistry. […] The assay was run in a 1× PBS-Tween buffer at pH 5.5.

mouse serum albumin = molecular target: T6, mouse serum albumin (mouse, UniProt P07724 25-608); assay: SPR, SA coupled to chip, pH 5.5
T6 construct: Coupled directly to the CM5 chip; also called MSA; mouse SA
Method: as §2

[4] = molecular target: cynomolgus CD137-Fc chimeric protein (cynomolgus monkey, UniProt A9YYE7 24-186); assay: SPR
Procedure, shortened: as §1

[5] = molecular target: T7, mouse CD137-Fc chimeric protein (mouse, UniProt P20334 24-187, limits assumed); assay: SPR
T7 sequence (looked up): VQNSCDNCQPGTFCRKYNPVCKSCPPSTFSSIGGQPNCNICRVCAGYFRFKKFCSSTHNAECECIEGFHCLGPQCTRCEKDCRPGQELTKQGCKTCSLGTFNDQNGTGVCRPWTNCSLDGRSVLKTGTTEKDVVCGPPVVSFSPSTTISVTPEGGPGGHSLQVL
Procedure, shortened: as §1

[6] = molecular target: T3, CD137 on Jurkat NFkB reporter cells; assay: cell-based or functional assay; remark: listed apart in the source
[7] = molecular target: T3, CD137 on Jurkat NFkB reporter cells; assay: cell-based or functional assay; remark: listed apart in the source
[8] = molecular target: T3, CD137 on Jurkat NFkB reporter cells; assay: cell-based or functional assay; remark: listed apart in the source
[9] = molecular target: T3, CD137 on Jurkat NFkB reporter cells; assay: cell-based or functional assay; remark: listed apart in the source
[10] = molecular target: T3, CD137 on Jurkat NFkB reporter cells; assay: cell-based or functional assay; remark: listed apart in the source
[11] = molecular target: T3, CD137 on Jurkat NFkB reporter cells; assay: cell-based or functional assay; remark: listed apart in the source
[12] = molecular target: T3, CD137 on Jurkat NFkB reporter cells; assay: cell-based or functional assay; remark: listed apart in the source

B1: PRO1186 (other)
chain: DIQMTQSPSSLSASVGDRVTITCQASQSIGTYLAWYQQKPGKAPKLLIYRAFILASGVPSRFSGSGSGTDFTLTISSLQPEDFATYYCQSNFYSDSTTIGPNAFGTGTKVTVLGGGGGSQVQLQESGPGLVKPSETLSLTCKVSGFSFSNSYWICWIRQPPGKGLEWIGCTFVGSSDSTYYANWAKGRVTISVDSSKNQFSLKLSSVTAADTAVYYCARHPSDAVYGYANNLWGQGTLVTVSSGGGGSGGGGSGGGGSGGGGSDIQMTQSPSSLSASVGDRVTITCQASQSINNVLAWYQQKPGKAPKLLIYRASTLASGVPSRFSGSGSGTDFTLTISSLQPEDFATYYCQSSYGNYGDFGTGTKVTVLGGGGGSQVQLQESGPGLVKPSETLSLTCKVSGFSFNSDYWIYWIRQPPGKGLEWIGSIYGGSSGNTQYASWAQGRVTISVDSSKNQFSLKLSSVTAADTAVYYCARGYVDYGGATDLWGQGTLVTVSSGGGGSGGGGSVVMTQSPSSLSASVGDRVTITCQASQIISSRSAWYQQKPGQPPKLLIYQASKLASGVPSRFSGSGSGTDFTLTISSLQPEDFATYYCQCTYIDSNFGAFGGGTKLTVLGGGGGSGGGGSGGGGSGGGGSEVQLVESGGGLVQPGGSLRLSCAASGFSFSSSYWICWVRQAPGKGLEWVGCVFTGDGTTYYASWAKGRFTISRDNSKNTVYLQMNSLRAEDTATYFCARPVSVYYYGMDLWGQGTLVTVSS
notes: trispecific scDb-scFv; also called 38-02-A04 sc01 scDb-i/37-20-B03sc01 scDb-o/23-13-A01-sc03 scFv
Fc tagged human PDL1
  Kd: 0.0037 nM
  koff: 2.3e-05 s⁻¹
  kon: 6.2e+06 M⁻¹ s⁻¹
Fc tagged human CD137
  Kd: 2.6 nM
  koff: 0.0005 s⁻¹
Human PDL1 on cells
  IC50 (ng/ml), NF-AT potency assay, +HSA: 10.2 ng/mL
  rel. IC50 (avelumab/test), +HSA: 2.31 fold
[1]
  IC50 (ng/ml), NFkB reporter, CHO-PD-L1, 24 h, +HSA: 51 ng/mL
  IC50 (ng/ml), NFkB reporter, HCC827 + IFNg, 24 h, +HSA: 16.7 ng/mL
  max. activation (%), NFkB reporter, CHO-PD-L1, 24 h, +HSA: 152%
  rel. IC50 (urelumab/test), NFkB reporter, CHO-PD-L1, 24 h, +HSA: 0.97 fold
  rel. IC50 (urelumab/test), NFkB reporter, HCC827 + IFNg, 24 h, +HSA: 1.88 fold
Biotinylated human PDL1 [2]
  IC50: 7.81 ng/mL
  rel. IC50 (IC50 avelumab/IC50 test): 1.58 fold
Biotinylated human PDL1 [3]
  IC50: 1.74 ng/mL
  rel. IC50 (IC50 avelumab/IC50 test): 1.26 fold
Human serum albumin
  Kd: 2.9 nM
  koff: 0.00072 s⁻¹
  kon: 250000 M⁻¹ s⁻¹
Mouse serum albumin
  kon: 220000 M⁻¹ s⁻¹

B2: PRO951 (bispecific antibody)
chain: DIQMTQSPSSLSASVGDRVTITCQASQSINDYLAWYQQKPGKAPKLLIYKASTLASGVPSRFSGSGSGTDFTLTISSLQPEDFATYYCQQGYIITDIDNVFGTGTKVTVLGGGGGSEVQLVESGGGLVQPGGSLRLSCAASGFSFNNDYDMCWVRQAPGKGLEWIGCIDTGDGSTYYASWAKGRFTISRDNSKNTVYLQMNSLRAEDTAVYYCAREAASSSGYGMGYFDLWGQGTLVTVSSGGGGSGGGGSGGGGSGGGGSIQMTQSPSSLSASVGDRVTITCQSSQSVYDNNWLAWYQQKPGKAPKLLIYRASNLASGVPSRFSGSGSGTDFTLTISSLQPEDFATYYCQGTYLSSNWYWAFGTGTKVTVLGGGGGSQVQLQESGPGLVKPSETLSLTCKVSGFSFSSGYDMCWIRQPPGKGLEWIGCVVAGSVDITYYASWAKGRVTISVDSSKNQFSLKLSSVTAADTAVYYCARKDAYSDAFNLWGQGTLVTVSS
notes: scDb anti-PDL1 x CD137; also called 38-27-C05 sc02 scDb-i/33-03-G02 sc01 scDb-o
Fc tagged human PDL1
  kon: 2.2e+06 M⁻¹ s⁻¹
[4]
  Kd: 6.9 nM
  koff: 0.01 s⁻¹
  kon: 1.5e+06 M⁻¹ s⁻¹
[5]
  binding result: no binding
Fc tagged human CD137
  Kd: 4.2 nM
Human PDL1 on cells
  IC50 (ng/ml), NF-AT potency assay: 88.5 ng/mL
  rel. IC50 (avelumab/test): 0.47 fold
[6]
  EC50, NFkB reporter, CHO-PDL1: 33.7 ng/mL
[1]
  IC50 (ng/ml), NFkB reporter, CHO-PD-L1: 33.7 ng/mL
  max. activation (%), NFkB reporter, CHO-PD-L1: 432%
  rel. IC50 (urelumab/test), NFkB reporter, CHO-PD-L1: 2.35 fold
Biotinylated human PDL1 [2]
  IC50: 9.3 ng/mL
  rel. IC50 (IC50 avelumab/IC50 test): 0.78 fold
Biotinylated human PDL1 [3]
  IC50: 9.5 ng/mL
  rel. IC50 (IC50 avelumab/IC50 test): 0.15 fold

B3: PRO885 (bispecific antibody)
chain: DIQMTQSPSSLSASVGDRVTITCQASQSINDYLAWYQQKPGKAPKLLIYKASTLASGVPSRFSGSGSGTDFTLTISSLQPEDFATYYCQQGYIITDIDNVFGTGTKVTVLGGGGGSQVQLQESGPGLVKPSETLSLTCKVSGFSFSNSYWICWIRQPPGKGLEWIGCTFVGSSDSTYYANWAKGRVTISVDSSKNQFSLKLSSVTAADTAVYYCARHPSDAVYGYANNLWGQGTLVTVSSGGGGSGGGGSGGGGSGGGGSIQMTQSPSSLSASVGDRVTITCQASQSINNVLAWYQQKPGKAPKLLIYRASTLASGVPSRFSGSGSGTDFTLTISSLQPEDFATYYCQSSYGNYGDFGTGTKVTVLGGGGGSQVQLQESGPGLVKPSETLSLTCKVSGFSFSSGYDMCWIRQPPGKGLEWIGCVVAGSVDITYYASWAKGRVTISVDSSKNQFSLKLSSVTAADTAVYYCARKDAYSDAFNLWGQGTLVTVSS
notes: scDb anti-PDL1 x CD137; also called 38-02-A04 sc01 scDb-i/33-03-G02 sc01 scDb-o
Fc tagged human PDL1
  koff: 0.00014 s⁻¹
  kon: 2.1e+06 M⁻¹ s⁻¹
[4]
  Kd: 2.1 nM
  koff: 0.0007 s⁻¹
  kon: 340000 M⁻¹ s⁻¹
[5]
  Kd: 600 nM
  koff: 0.18 s⁻¹
  kon: 290000 M⁻¹ s⁻¹
Fc tagged human CD137
  koff: 0.00076 s⁻¹
  kon: 240000 M⁻¹ s⁻¹
Human PDL1 on cells
  IC50 (ng/ml), NF-AT potency assay: 137 ng/mL
  rel. IC50 (avelumab/test): 0.28 fold
[6]
  EC50, NFkB reporter, CHO-PDL1: 11.7 ng/mL
[7]
  EC50, NFkB reporter, CHO-PDL1: 5.13 ng/mL and 4.86 ng/mL and 6.3 ng/mL
[8]
  EC50, NFkB reporter, HCC827 without IFNg: 11.5 ng/mL and 13.1 ng/mL and 13 ng/mL
[9]
  EC50, NFkB reporter, HCC827 with IFNg: 9.27 ng/mL and 8.88 ng/mL and 9.23 ng/mL
[10]
  EC50, NFkB reporter, CHO-PDL1, 6 h: 7.84 ng/mL
  EC50, NFkB reporter, CHO-PDL1, 6 h, +HSA: 7.92 ng/mL
[11]
  EC50, NFkB reporter, CHO-PDL1, 24 h: 13.8 ng/mL
  EC50, NFkB reporter, CHO-PDL1, 24 h, +HSA: 14.8 ng/mL
[12]
  EC50, NFkB reporter, HCC827 with IFNg, 24 h: 7.51 ng/mL
  EC50, NFkB reporter, HCC827 without IFNg, 24 h: 9.52 ng/mL
[1]
  IC50 (ng/ml), NFkB reporter, CHO-PD-L1: 11.7 ng/mL
  IC50 (ng/ml), NFkB reporter, HCC827 + IFNg: 8.88 ng/mL
  IC50 (ng/ml), NFkB reporter, HCC827 - IFNg: 13.1 ng/mL
  max. activation (%), NFkB reporter, CHO-PD-L1: 499%
  max. activation (%), NFkB reporter, HCC827 + IFNg: 134%
  max. activation (%), NFkB reporter, HCC827 - IFNg: 111%
  rel. IC50 (urelumab/test), NFkB reporter, CHO-PD-L1: 6.75 fold
  rel. IC50 (urelumab/test), NFkB reporter, HCC827 + IFNg: 16.3 fold
  rel. IC50 (urelumab/test), NFkB reporter, HCC827 - IFNg: 8.42 fold
Biotinylated human PDL1 [2]
  IC50: 12.2 ng/mL
  rel. IC50 (IC50 avelumab/IC50 test): 0.59 fold
Biotinylated human PDL1 [3]
  IC50: 8.35 ng/mL
  rel. IC50 (IC50 avelumab/IC50 test): 0.17 fold
